Experimental data from patent publication US20210079109A1 (Regeneron, published 2021).
Residue numbers refer to the chain shown, from its start.

B1: H2M13022N (antibody, V domains shown)
VH: QVQLVESGGGLVQPGGSLRLSCAASGFIFGDYYINWIRQAPGKGLQWVSYTSSSGSTTYYEDSVKGRFTMSRDNAKNLVYLQMNSLRAEDTAAYYCVRDLRYNDGLDVWGQGTTVIVSS
VL: DILLTQSPSSLSAFVGDRVTITCRASQNIRTYLNWYQQKPGRAPKLLVYAASTLQSGVPSRFSGSGSGTDFTLTISSLQPEDFASYFCQQSYDNPPITFGQGTRLAIK
notes: also called H2bM13022N
B2: H3M12361N (antibody, V domains shown)
VH: EVQLVESGGGLVQPGRSLRLSCTASGFTFGDHAMHWVRQAPGKGLEGVSSINWNSGIIGYAESVKGRFTISRDNAKNSLYLQMNNLRAEDTGLYYCARDIGVATLGIDYWGQGTLVTVSS
VL: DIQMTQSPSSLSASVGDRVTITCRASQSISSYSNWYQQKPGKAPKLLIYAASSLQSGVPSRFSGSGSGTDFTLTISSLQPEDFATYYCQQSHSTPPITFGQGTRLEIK
B3: H4H11996P2 (antibody, V domains shown)
VH: QVQLVESGGGLVKPGGSLRLSCAASGFIFTDYFMNWIRQAPGKGLEWVSYISNSGNILYYADSVKGRFTISRDNAKASLYLQMSSLKAEDTAVYYCVRDPRMFYGMDVWGQGTTVTVSS
VL: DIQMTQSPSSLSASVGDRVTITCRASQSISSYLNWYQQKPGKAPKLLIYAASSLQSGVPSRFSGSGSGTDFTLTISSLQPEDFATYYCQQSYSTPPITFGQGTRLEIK
B4: H4H11990P2 (antibody, V domains shown)
VH: QVQLVESGGGLVKPGGSLRLSCATSGFTFTDYFMNWIRQAPGKGLEWVSYISNSGSIRYYADSVRGRFSISRDNAKNSLYLQMSSLRADDTAVYYCVRDPRQIYGMDVWGQGTTVTVSS
VL: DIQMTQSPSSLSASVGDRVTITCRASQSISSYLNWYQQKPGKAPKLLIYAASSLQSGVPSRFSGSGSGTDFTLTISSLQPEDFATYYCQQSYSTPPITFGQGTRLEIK
B5: H4H11992P2 (antibody, V domains shown)
VH: B3 VH with G15R, T30D, I57T, L58K, K76Y, A77N, S84N, K87R, M102S, F103Y
VL: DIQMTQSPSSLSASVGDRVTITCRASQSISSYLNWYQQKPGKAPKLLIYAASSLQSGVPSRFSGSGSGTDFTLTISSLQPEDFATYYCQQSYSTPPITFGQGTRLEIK
B6: H4H11997P2 (antibody, V domains shown)
VH: QVQLVESGGGLVKPGGSLRLSCAASGFTFSDYYMNWIRQAPGKGLEWITYINNGGYTKYYADSVKGRFIISRDNTKNSVHLQMNSLRAEDTAVYYCVRDPRMYYGMDVWGQGTTVTVSS
VL: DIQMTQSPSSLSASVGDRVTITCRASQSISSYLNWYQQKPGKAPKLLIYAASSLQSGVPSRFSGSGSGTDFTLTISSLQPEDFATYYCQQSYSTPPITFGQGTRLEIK
B7: H4H11993P2 (antibody, V domains shown)
VH: QVQLVESGGGLVKPGGSLRLSCAASGFTFSDYYMNWIRQAPGKGLEWVSYINGGGYTMYYADSVKGRFTISRDNAKNSLYLQMNSLRAEDTAVYYCARDRRTTVSIDYWGQGTLVTVSS
VL: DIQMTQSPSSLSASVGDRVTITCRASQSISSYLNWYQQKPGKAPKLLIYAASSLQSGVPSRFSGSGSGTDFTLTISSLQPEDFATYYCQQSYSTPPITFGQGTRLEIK

Target: T1, human CD63 (human, UniProt P08962 2-238)
T1 construct: stably transfected in NIH3T3/hCD63; The cell line is named under assay; also called hCD63
T1 sequence: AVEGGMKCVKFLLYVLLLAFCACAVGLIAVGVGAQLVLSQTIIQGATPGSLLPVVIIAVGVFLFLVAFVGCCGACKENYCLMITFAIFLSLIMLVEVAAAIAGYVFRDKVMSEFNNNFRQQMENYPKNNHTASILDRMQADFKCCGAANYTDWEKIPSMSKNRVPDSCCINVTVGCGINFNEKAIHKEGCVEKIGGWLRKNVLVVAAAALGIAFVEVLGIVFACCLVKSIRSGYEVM
Assay: ECL, LNCAP cells
Method: (§1) LNCAP cells were determined to have a lower human CD63 copy number than U87MG cells. Non-transfected NIH3T3 cells, which have no detectable expression of human CD63 by fluorescence activated cell sorting (FACS), were included as a negative control.
(§2) Briefly, cell lines were rinsed once in PBS buffer without Ca²⁺/Mg²⁺ and incubated for 10 minutes at 37° C. with Enzyme Free Cell Dissociation Solution (Millipore, Cat #S-004-C) to detach the cells. Cells were then washed once with PBS with Ca²⁺/Mg²⁺ and counted with a Cellometer™ Auto T4 cell counter (Nexcelom Bioscience, LLC). Approximately 2.0×10⁴ NIH3T3/hCD63, LNCAP, U87MG or NIH3T3 cells were seeded separately onto 96-well carbon electrode plates […]) and were then incubated for one hour at 37° C. Nonspecific binding sites were blocked with 2% BSA (w/v) in PBS with Ca²⁺/Mg²⁺ for one hour at room temperature (RT). Solutions containing anti-CD63 antibodies or isotype control antibodies at a range of concentrations (1.7 pM to 100 nM) in 0.5% BSA (w/v) in PBS with Ca²⁺/Mg²⁺, as well as control buffer alone, were then added in duplicate to the plate-bound NIH3T3/hCD63, LNCAP, U87MG or NIH3T3 cells and incubated for one hour at RT. Plates were subsequently washed to remove unbound antibodies using an AquaMax2000 plate washer with a cell washing head (MDS Analytical Technologies). […] Plates were washed and then incubated with Read Buffer (MSD, Cat #R92TD-2) according to the manufacturer's instructions. Luminescent signals were measured using a SECTOR Imager (MSD).

EC50 | binding ratio at 3.7 nM vs NIH3T3 | Binder
0.32 nM | 8 fold | B1
1.1 nM | 19 fold | B2
4.4 nM | 7 fold | B3
5.1 nM | 6 fold | B4
3.6 nM | 4 fold | B5
1.9 nM | 11 fold | B6
6.7 nM | 8 fold | B7

Target: T1, human CD63
Assay: ECL, U87MG cells
Method: as §1, §2

EC50 | binding ratio at 3.7 nM vs NIH3T3 | Binder
0.85 nM | 71 fold | B1
1.3 nM | 111 fold | B2
8.1 nM | 57 fold | B3
4.8 nM | 66 fold | B4
5.5 nM | 33 fold | B5
1.7 nM | 99 fold | B6
17 nM | 62 fold | B7

Target: T1, human CD63
Assay: ECL, NIH3T3/hCD63 cells
Method: as §1, §2

EC50 | binding ratio at 3.7 nM vs NIH3T3 | Binder
0.45 nM | 95 fold | B1
0.81 nM | 243 fold | B2
0.98 nM | 188 fold | B3
0.93 nM | 168 fold | B4
1.5 nM | 87 fold | B5
0.94 nM | 266 fold | B6
2.5 nM | 227 fold | B7

Target: T2, recombinant human CD63 extracellular loop 2 expressed with a C-terminal Myc-Myc-hexahistidine (human)
T2 construct: also called hCD63 EC loop 2-MMH; human CD63 EC loop 2-MMH
T2 sequence (chain, as listed by the source limits assumed): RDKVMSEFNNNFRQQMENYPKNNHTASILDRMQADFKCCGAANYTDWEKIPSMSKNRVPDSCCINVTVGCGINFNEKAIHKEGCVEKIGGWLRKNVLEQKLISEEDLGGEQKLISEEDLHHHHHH
Assay: SPR Biacore, mAb captured, 25C
Method: (§3) Equilibrium dissociation constants (KD) for different CD63 (EC2) loop reagents binding to purified anti-CD63 monoclonal antibodies were determined using a real-time surface plasmon resonance based Biacore T200 biosensor or Biacore 2000 biosensor. All binding studies were performed in 10 mM HEPES, 150 mM NaCl, 3 mM EDTA, and 0.05% v/v Surfactant Tween-20, pH 7.4 (HBS-ET) running buffer at 25° C. and 37° C. The Biacore CMS sensor chip surface was first derivatized by amine coupling with either a rabbit anti-mouse Fc specific polyclonal antibody (GE Healthcare, Cat #BR100838) or an anti-human Fab kit (GE Healthcare, Cat #28958325) to capture anti-CD63 monoclonal antibodies. […] The association rate (Kₐ) and dissociation rate (kd) were determined by fitting the real-time binding sensorgrams to a 1:1 binding model with mass transport limitation using Scrubber 2.0c curve-fitting software. Binding dissociation equilibrium constant (KD) and dissociative half-life (t½) were calculated from the kinetic rates as: […]
(§4) Binding kinetics parameters for human CD63 EC loop 2 protein binding to different anti-CD63 monoclonal antibodies of the invention at 25° C. and 37° C. are shown in Tables 6 through 9.

100 nM Ag Bound (RU) | Kd | koff | kon | t1/2 | Binder
48 RU | 13 nM | 0.00132 s⁻¹ | 102000 M⁻¹ s⁻¹ | 9 min | B1
43 RU | 3.12 nM | 0.000805 s⁻¹ | 258000 M⁻¹ s⁻¹ | 14 min | B2
61 RU | 84.9 nM | 0.014 s⁻¹ | 165000 M⁻¹ s⁻¹ | 0.8 min | B3
94 RU | 30.6 nM | 0.00591 s⁻¹ | 193000 M⁻¹ s⁻¹ | 2 min | B4
53 RU | 213 nM | 0.0267 s⁻¹ | 125000 M⁻¹ s⁻¹ | 0.4 min | B5
106 RU | 19.9 nM | 0.00371 s⁻¹ | 186000 M⁻¹ s⁻¹ | 3.1 min | B6
10 RU | – | – | – | – | B7

Target: T3, recombinant human CD63 extracellular loop 2 expressed with a C-terminal human Fc tag (human)
T3 construct: also called hCD63 EC loop 2-hFc; human CD63 EC loop 2-Fc
T3 sequence (chain, as listed by the source limits assumed): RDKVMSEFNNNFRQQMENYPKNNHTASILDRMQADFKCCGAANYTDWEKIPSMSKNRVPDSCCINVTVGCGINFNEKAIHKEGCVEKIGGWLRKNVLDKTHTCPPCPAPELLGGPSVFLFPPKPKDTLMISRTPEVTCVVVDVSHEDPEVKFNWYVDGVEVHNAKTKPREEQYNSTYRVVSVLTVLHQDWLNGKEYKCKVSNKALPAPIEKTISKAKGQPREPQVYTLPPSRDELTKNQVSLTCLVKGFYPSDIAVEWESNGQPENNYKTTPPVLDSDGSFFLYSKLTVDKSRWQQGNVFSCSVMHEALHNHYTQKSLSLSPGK
Assay: SPR Biacore, mAb captured, 25C
Method: as §3, §4

100 nM Ag Bound (RU) | Kd | koff | kon | t1/2 | Binder
117 RU | 0.61 nM | 0.00028 s⁻¹ | 460000 M⁻¹ s⁻¹ | 41 min | B1
83 RU | 0.299 nM | 0.000132 s⁻¹ | 441000 M⁻¹ s⁻¹ | 87 min | B2
257 RU | 0.292 nM | 0.000135 s⁻¹ | 461000 M⁻¹ s⁻¹ | 86 min | B3
275 RU | 0.209 nM | 8.99e-05 s⁻¹ | 430000 M⁻¹ s⁻¹ | 128 min | B4
304 RU | 0.401 nM | 0.000257 s⁻¹ | 641000 M⁻¹ s⁻¹ | 45 min | B5
291 RU | 0.149 nM | 6.2e-05 s⁻¹ | 417000 M⁻¹ s⁻¹ | 186 min | B6
194 RU | 2 nM | 0.000728 s⁻¹ | 364000 M⁻¹ s⁻¹ | 16 min | B7

Target: T2, recombinant human CD63 extracellular …
Assay: SPR Biacore, mAb captured, 37C
Method: as §3, §4

100 nM Ag Bound (RU) | Kd | koff | kon | t1/2 | Binder
31 RU | 21.5 nM | 0.00671 s⁻¹ | 311000 M⁻¹ s⁻¹ | 2 min | B1
39 RU | 5.85 nM | 0.00289 s⁻¹ | 495000 M⁻¹ s⁻¹ | 4 min | B2
46 RU | 361 nM | 0.0389 s⁻¹ | 108000 M⁻¹ s⁻¹ | 0.3 min | B3
81 RU | 124 nM | 0.0198 s⁻¹ | 160000 M⁻¹ s⁻¹ | 0.6 min | B4
30 RU | 12300 nM | 0.0814 s⁻¹ | 6600 M⁻¹ s⁻¹ | 0.1 min | B5
74 RU | 145 nM | 0.0192 s⁻¹ | 132000 M⁻¹ s⁻¹ | 0.6 min | B6
3 RU | – | – | – | – | B7

Target: T3, recombinant human CD63 extracellular …
Assay: SPR Biacore, mAb captured, 37C
Method: as §3, §4

100 nM Ag Bound (RU) | Kd | koff | kon | t1/2 | Binder
107 RU | 1.01 nM | 0.000562 s⁻¹ | 557000 M⁻¹ s⁻¹ | 21 min | B1
97 RU | 0.568 nM | 0.00037 s⁻¹ | 651000 M⁻¹ s⁻¹ | 31 min | B2
294 RU | 0.264 nM | 0.000142 s⁻¹ | 538000 M⁻¹ s⁻¹ | 81 min | B3
338 RU | 0.104 nM | 4.96e-05 s⁻¹ | 482000 M⁻¹ s⁻¹ | 233 min | B4
358 RU | 1.05 nM | 0.000682 s⁻¹ | 647000 M⁻¹ s⁻¹ | 17 min | B5
342 RU | 0.045 nM | 1.91e-05 s⁻¹ | 425000 M⁻¹ s⁻¹ | 603 min | B6
156 RU | 7.92 nM | 0.00457 s⁻¹ | 577000 M⁻¹ s⁻¹ | 3 min | B7
